Test results: patent publication US11766432B2, “Cleavable conjugates of catechol compounds and water-soluble polymers and methods of treatment using the same” (SERINA THERAPEUTICS, INC., priority 2018, dated 2023)
Where “and” joins values, the source holds several entries; their conditions need not be identical. Equal entries are not always repeated. Structures can show the parent of a compound that is named as a salt. Where two headings read alike, the source gives them in different places.

What was measured:
skin at injection site [1] = conditions: for tolerability after SC injection: primates, single SC injection 1.5 mg/kg
skin at injection site [2] = conditions: for tolerability after SC injection: primates, SC injection 3.0 mg/kg (apomorphine equivalents), multiple doses; for skin at the site of injection 12 hours after the third dose (day 14): weekly SC injection 3.0 mg/kg (apomorphine equivalents)
Experimental: Non-naïve female cynomolgus monkeys were used in the study. […] They were assigned to three groups with 3 animals per group.
The test articles were dosed subcutaneously (as described in Table 6) in the right shoulder on days 0 and 14 and in the left shoulder on days 7 and 21, of each monkey. […] Photographs were taken to study the severity of the reactions and observations that were recorded.
To determine if the Apo-A, Apo-B, and Apo-G conjugates induced skin reactions at a concentration of 3.0 mg/kg (as compared to the 1.5 mg/kg dose described in Examples 18 and 20), all animals were/will be monitored daily for these skin reactions. Photographs were/will be taken to study the skin reactions and observations were/will be recorded. Bases on the presence of erythema and swelling, the skin reactions were/will be recorded as none, slight, well defined, moderate and severe.

[3] = Pharmacokinetics of free apomorphine in plasma after single SC infusion/injection; conditions: for dose dumping (burst effect): after single SC administration 1.5 mg/kg; for AUC0-168 / AUC0-inf / AUC0-last / Cmax / Tmax / time post-dose by which drug is completely cleared and below the limit of quantification (BLQ) / increase of Tmax as compared to apomorphine HCl / increase of t1/2z as compared to apomorphine HCl: free apomorphine, single SC 1.5 mg/kg; for AUC0-168 / AUC0-inf / AUC0-last / Cmax / Tmax / time post-dose by which drug is completely cleared and below the limit of quantification (BLQ): plasma; for AUC0-168 / AUC0-inf / AUC0-last / Cmax / Tmax: female monkeys, mean n=3; for period of sustained release of apomorphine: single SC injection 1.5 mg/kg, monkeys
[4] = single SC injection 1.5 mg/kg; for PR (percent of released apomorphine): AUC0-last(free) relative to AUC0-last(total); for PR (percent of released apomorphine) / AUC0-168 / AUC0-inf / AUC0-last / CL/F obs / Cmax / Tmax: mean; for time by which drug is cleared and BLQ / AUC0-168 / AUC0-inf / AUC0-last / CL/F obs / Cmax / Tmax: total apomorphine, plasma
in vivo = conditions: female, cynomolgus monkey, sc, 1.5 mg/kg
[5] = female, cynomolgus monkey, in vivo, sc, 1.5 mg/kg
[6] = single SC 1.5 mg/kg, per animal

Compound	tolerability after SC injection (skin at injection site [1])	Observations (skin reaction), Day 1 to Day 15 (skin at injection site [1]; [6])	Observations (skin reaction), Day 15 (skin at injection site [1]; [6])	tolerability after SC injection (skin at injection site [2])	skin at the site of injection 12 hours after the third dose (day 14) (skin at injection site [2])	dose dumping (burst effect) [3]	AUC0-168 [3] [ng·h/mL]	AUC0-inf [3] [ng·h/mL]	AUC0-last [3] [ng·h/mL]	Cmax [3] [ng/mL]	Tmax [3] [h]	time post-dose by which drug is completely cleared and below the limit of quantification (BLQ) [3] [h]	increase of Tmax as compared to apomorphine HCl [3] [times]	increase of t1/2z as compared to apomorphine HCl [3] [times]	period of sustained release of apomorphine [3] [days]	PR (percent of released apomorphine) [4] [%]	time by which drug is cleared and BLQ [4] [h]	AUC0-168 [4] [ng·h/mL]	AUC0-inf [4] [ng·h/mL]	AUC0-last [4] [ng·h/mL]	other results
POZ10p20k[Apo(2-methylpropanoate)(4-triazolebutanoate)]10 [POZ-Apomorphine B]	well tolerated	Day 1 to Day 15: No erythema and swelling.	Day 15: Skin appears normal.	well tolerated	appeared normal with no sign of erythema and swelling	no evidence of dose dumping	478	968	640	3.5	104	> 240	26	84.3	10	5.5	> 240	8317	16456	11610	CL/F obs [4]: 1.52 mL/min/kg; Cmax ([4]; 1.5 mg/kg): 72.6 ng/mL and 72.7 ng/mL; Tmax ([4]; 1.5 mg/kg): 136.0 h
CN1CCc2cccc3c2[C@H]1Cc1ccc(O)c(O)c1-3 [apomorphine HCl, Apomorphine hydrochloride]	–	–	–	–	–	–	–	–	–	–	–	–	–	–	–	–	–	–	–	–	Observations (skin reaction), Day 15 (skin at injection site [1]; female, cynomolgus monkey, in vivo, sc, 1.5 mg/kg, 15 day): Day 15: Skin appears normal.; AUC0-inf (in vivo): 90.2 ng·h/mL; CL/F (in vivo): 289 mL/min/kg; Cmax (in vivo): 10.6 ng/mL; Vd/F (in vivo): 43.6 L/kg; AUC(0-t) (in vivo; cynomolgus): 89.8 ng·h/mL; Cmax (in vivo; cynomolgus): ~10.6 ng/mL; Tmax (in vivo; cynomolgus): 4 h; time post-dose by which drug is completely cleared and below the limit of quantification (BLQ) [5]: ≤ 24 h
POZ10p20k[Apo(4-butanoate)(4-triazolebutanoate)]10 [POZ-Apomorphine A]	well tolerated	Day 1 to Day 15: No erythema and swelling.	Day 15: Skin appears normal.	well tolerated	appeared normal with no sign of erythema and swelling	no evidence of dose dumping	647	666	656	6.6	88	≤ 240	22	13.2	5	4.8	≤ 240	13368	138986	13835	CL/F obs [4]: 1.82 mL/min/kg; Cmax [4]: 151.3 ng/mL; Tmax [4]: 88 h
